Measured values published in the supplement of paper PMC10567573.

B1: BCL2L13 (parent)
chain: MASSSTVPLGFHYETKYVVLSYLG
B2: BEX1 (parent)
chain: HSLRAVSTDPPHHDHHDEFCLMP

Variants of: B1
Assay: protein stability index of a GFP-peptide fusion (GPS, HEK-293T) (PSI 1-6); higher = more stable
Conditions: c terminus: a fixed tail appended
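Further: lentivirally expressed fusions sorted by FACS into six bins by GFP to DsRed ratio, PSI derived from sequencing read proportions per bin multiplied by bin number.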

Protein stability index of substitutions, site by site:
S5: C 2.11, G 2.2, P 2.24, T 2.71, Q 2.96, A 1.72, W 2.02, Y 3.24, M 2.51, E 1.53, I 2.74, K 1.91, N 2.72, F 2.55, L 2.16, V 2.17, H 2.09, D 2.72, R 2.4
S4: K 2.21, D 2.74, P 3.27, N 1.7, W 2.93, M 1.76, G 2.49, Y 2.38, Q 3.25, T 2.81, E 4.38, V 2.91, I 2.21, A 2.6, H 2.24
T6: R 2.82, Q 2.26, C 1.67, I 2.35, Y 2.66, E 3.45, K 2.59, G 1.94, H 3.22, M 2.4, V 1.82, W 2.27, N 2.58, L 2.14, P 2.59, A 2.45, D 2.29, S 2.95
P8: S 2.54, L 1.66, M 3.28, F 2.74, N 3.63, H 2.22, W 3.73, V 2.15, G 4.24, T 2.53, Q 2.54, D 2.98, I 2.73, R 3.92, Y 3.53, E 2.25, A 2.97, K 3.91
M1: G 3.23, T 2.27, W 2.52, H 2.59, Q 1.76, I 2.51, C 2.59, R 2.48, F 2.74, E 2.12, S 2.15, Y 2.09, V 2.12, K 2.03, D 3.17, P 2.72
A2: H 2.74, N 3.27, R 2.37, S 3.1, M 2.68, L 2.56, C 3.03, T 3.3, K 2.38, P 2.49, F 3.22, D 2.56, Q 2.37, G 2.72, E 2.06, I 1.92
L9: C 3.98, E 2.33, D 2.32, A 2
V7: I 2.72, L 3.03, G 2.08, K 2.84, S 3.11, H 2.67, W 2.36, M 2.35, T 2.36, N 3.19, P 2.14, F 2.17, R 2.33, D 3.29, E 3.31, C 3.72, Y 3.3, A 2.78
S3: I 3.39, H 2.77, E 3.48, M 2.72, F 1.99, R 2.97, V 3, A 2.39, Y 2.64, P 2.9, T 3.21, Q 2.21, G 3.46, D 2.57, C 2.59, K 2.62, N 2.59

Variants of: B2
Assay: as above
Conditions: c terminus: native

Protein stability index of substitutions, site by site:
E18: D 2.6, P 2.79
C20: P 1.97, Y 2.92
D17: P 2.96
P23: K 2.9, Q 2.84, Y 2.07
F19: H 2.8, D 2.37
L21: G 2.9, P 2.75, D 2.46
M22: C 2.48, S 2.59, T 3.4, I 2.04, F 1.19, G 1.79, N 2.52, L 1.91, A 2.11, H 2.01, P 2.68, D 2.11, Y 2.35
